Measurements from US20060140858A1, “Drug pre-targeting by means of bi-specific antibodies and hapten constructs comprising a carrier peptide and the active agent(s)” (Immunomedics, Inc., priority 2002, published 2006).

Legend:
[1] = Biodistribution of In-111 IMP 224 in BALB/c mice; assay type: in vivo
Description: Kits were reconstituted with 400 μCi In-111 in 0.5 mL water.

[2] = Pretargeting: I-125 F6 × 734-F(ab′)2, 72 h later In-111-IMP-224, biodistribution; settings: female, mouse, in vivo, 10 uCi, total radioactivity, tumor-to-normal organ ratio

Compound `COc1cccc2c1C(=O)c1c(O)c3c(c(O)c1C2=O)C[C@@](O)(C(CO)=NNc1ccc(C(=O)N[C@@H](CCCCNC(=O)CN(CCN(CCN(CC(=O)O)CC(=O)O)CC(=O)O)CC(=O)O)C(=O)N[C@@H](Cc2ccc(O)cc2)C(=O)N[C@@H](CCCCNC(=O)CN(CCN(CCN(CC(=O)O)CC(=O)O)CC(=O)O)CC(=O)O)C(N)=O)cc1)C[C@@H]3O[C@H]1C[C@H](N)[C@H](O)[C@H](C)O1` [IMP 224, Dox = N—NH—C6H4—CO-Lys(DTPA)-Tyr-Lys(DTPA)-NH2] has a tissue uptake at 0.5 h ([1]; BALB/c, mouse, 20 uCi, total radioactivity, Blood, 30 min) of 1.44 ± 0.28 %ID/g, a tissue uptake at 1 h ([1]; BALB/c, mouse, 20 uCi, total radioactivity, Blood, 1 hr) of 0.54 ± 0.12 %ID/g and a tissue uptake at 2 h ([1]; BALB/c, mouse, 20 uCi, total radioactivity, Blood, 2 hr) of 0.12 ± 0.01 %ID/g. For the same compound, the tissue uptake at 4 h ([1]; BALB/c, mouse, 20 uCi, total radioactivity, Blood, 4 hr) was 0.1 ± 0.01 %ID/g, the tissue uptake at 24 h ([1]; BALB/c, mouse, 20 uCi, total radioactivity, Blood, 24 hr) was 0.02 %ID/g and the tissue uptake at 0.5 h ([1]; BALB/c, mouse, 20 uCi, total radioactivity, Kidney, 30 min) was 8.45 ± 1.79 %ID/g. For the same compound, the tissue uptake at 1 h ([1]; BALB/c, mouse, 20 uCi, total radioactivity, Kidney, 1 hr) was 5.36 ± 1.01 %ID/g, the tissue uptake at 2 h ([1]; BALB/c, mouse, 20 uCi, total radioactivity, Kidney, 2 hr) was 3.75 ± 0.52 %ID/g and the tissue uptake at 4 h ([1]; BALB/c, mouse, 20 uCi, total radioactivity, Kidney, 4 hr) was 4.03 ± 0.45 %ID/g. For the same compound, the tissue uptake at 24 h ([1]; BALB/c, mouse, 20 uCi, total radioactivity, Kidney, 24 hr) was 2.12 ± 0.17 %ID/g, the tissue uptake at 0.5 h ([1]; BALB/c, mouse, 20 uCi, total radioactivity, Liver, 30 min) was 0.57 ± 0.04 %ID/g and the tissue uptake at 1 h ([1]; BALB/c, mouse, 20 uCi, total radioactivity, Liver, 1 hr) was 0.31 ± 0.03 %ID/g. For the same compound, the tissue uptake at 2 h ([1]; BALB/c, mouse, 20 uCi, total radioactivity, Liver, 2 hr) was 0.17 ± 0.03 %ID/g, the tissue uptake at 4 h ([1]; BALB/c, mouse, 20 uCi, total radioactivity, Liver, 4 hr) was 0.17 ± 0.01 %ID/g and the tissue uptake at 24 h ([1]; BALB/c, mouse, 20 uCi, total radioactivity, Liver, 24 hr) was 0.13 ± 0.02 %ID/g. The tissue uptake at 0.5 h ([1]; BALB/c, mouse, 20 uCi, total radioactivity, Lungs, 30 min) was 1.61 ± 0.34 %ID/g, the tissue uptake at 1 h ([1]; BALB/c, mouse, 20 uCi, total radioactivity, Lungs, 1 hr) was 0.99 ± 0.26 %ID/g and the tissue uptake at 2 h ([1]; BALB/c, mouse, 20 uCi, total radioactivity, Lungs, 2 hr) was 0.25 ± 0.02 %ID/g. It also gave a tissue uptake at 4 h ([1]; BALB/c, mouse, 20 uCi, total radioactivity, Lungs, 4 hr) of 0.17 ± 0.02 %ID/g, a tissue uptake at 24 h ([1]; BALB/c, mouse, 20 uCi, total radioactivity, Lungs, 24 hr) of 0.09 ± 0.02 %ID/g and a tissue uptake at 0.5 h ([1]; BALB/c, mouse, 20 uCi, total radioactivity, Muscle, 30 min) of 0.51 ± 0.19 %ID/g. It also gave a tissue uptake at 1 h ([1]; BALB/c, mouse, 20 uCi, total radioactivity, Muscle, 1 hr) of 0.21 ± 0.08 %ID/g, a tissue uptake at 2 h ([1]; BALB/c, mouse, 20 uCi, total radioactivity, Muscle, 2 hr) of 0.03 ± 0.02 %ID/g and a tissue uptake at 4 h ([1]; BALB/c, mouse, 20 uCi, total radioactivity, Muscle, 4 hr) of 0.02 %ID/g. It also gave a tissue uptake at 24 h ([1]; BALB/c, mouse, 20 uCi, total radioactivity, Muscle, 24 hr) of 0.01 %ID/g, a tissue uptake at 0.5 h ([1]; BALB/c, mouse, 20 uCi, total radioactivity, Spleen, 30 min) of 0.57 ± 0.18 %ID/g and a tissue uptake at 1 h ([1]; BALB/c, mouse, 20 uCi, total radioactivity, Spleen, 1 hr) of 0.27 ± 0.06 %ID/g. For the same compound, the tissue uptake at 2 h ([1]; BALB/c, mouse, 20 uCi, total radioactivity, Spleen, 2 hr) was 0.12 ± 0.01 %ID/g, the tissue uptake at 4 h ([1]; BALB/c, mouse, 20 uCi, total radioactivity, Spleen, 4 hr) was 0.11 ± 0.01 %ID/g and the tissue uptake at 24 h ([1]; BALB/c, mouse, 20 uCi, total radioactivity, Spleen, 24 hr) was 0.07 %ID/g. For the same compound, the tissue uptake at 0.5 h ([1]; BALB/c, mouse, 20 uCi, total radioactivity, Stomach, 30 min) was 0.61 ± 0.07 %ID/g, the tissue uptake at 1 h ([1]; BALB/c, mouse, 20 uCi, total radioactivity, Stomach, 1 hr) was 0.15 ± 0.07 %ID/g and the tissue uptake at 2 h ([1]; BALB/c, mouse, 20 uCi, total radioactivity, Stomach, 2 hr) was 0.05 ± 0.01 %ID/g. For the same compound, the tissue uptake at 4 h ([1]; BALB/c, mouse, 20 uCi, total radioactivity, Stomach, 4 hr) was 0.06 ± 0.02 %ID/g, the tissue uptake at 24 h ([1]; BALB/c, mouse, 20 uCi, total radioactivity, Stomach, 24 hr) was 0.04 ± 0.02 %ID/g and the tissue uptake at 0.5 h ([1]; BALB/c, mouse, 20 uCi, total radioactivity, Tail, 30 min) was 3.66 ± 0.43 %ID/g. For the same compound, the tissue uptake at 1 h ([1]; BALB/c, mouse, 20 uCi, total radioactivity, Tail, 1 hr) was 1.9 ± 0.09 %ID/g, the tissue uptake at 2 h ([1]; BALB/c, mouse, 20 uCi, total radioactivity, Tail, 2 hr) was 0.46 ± 0.09 %ID/g and the tissue uptake at 4 h ([1]; BALB/c, mouse, 20 uCi, total radioactivity, Tail, 4 hr) was 0.24 ± 0.03 %ID/g. For the same compound, the tissue uptake at 24 h ([1]; BALB/c, mouse, 20 uCi, total radioactivity, Tail, 24 hr) was 0.58 ± 0.22 %ID/g, the excreta dose per gram or mL at 2 h ([1]; BALB/c, mouse, 20 uCi, total radioactivity, Urine, 2 hr) was 19.1 %ID/g and the excreta dose per gram or mL at 4 h ([1]; BALB/c, mouse, 20 uCi, total radioactivity, Urine, 4 hr) was 1.72 ± 0.67 %ID/g. The excreta dose per gram or mL at 24 h ([1]; BALB/c, mouse, 20 uCi, total radioactivity, Urine, 24 hr) was 0.42 ± 0.18 %ID/g, the tissue uptake at 0.5 h ([1]; BALB/c, mouse, large intestine, 20 uCi, total radioactivity, Large Int., 30 min) was 0.59 ± 0.43 %ID/g and the tissue uptake at 1 h ([1]; BALB/c, mouse, large intestine, 20 uCi, total radioactivity, Large Int., 1 hr) was 0.18 ± 0.04 %ID/g. The tissue uptake at 2 h ([1]; BALB/c, mouse, large intestine, 20 uCi, total radioactivity, Large Int., 2 hr) was 0.38 ± 0.15 %ID/g, the tissue uptake at 4 h ([1]; BALB/c, mouse, large intestine, 20 uCi, total radioactivity, Large Int., 4 hr) was 0.3 ± 0.06 %ID/g and the tissue uptake at 24 h ([1]; BALB/c, mouse, large intestine, 20 uCi, total radioactivity, Large Int., 24 hr) was 0.08 ± 0.03 %ID/g. It also gave a tissue uptake at 0.5 h ([1]; BALB/c, mouse, small intestine, 20 uCi, total radioactivity, Small Int., 30 min) of 0.72 ± 0.08 %ID/g, a tissue uptake at 1 h ([1]; BALB/c, mouse, small intestine, 20 uCi, total radioactivity, Small Int., 1 hr) of 0.37 ± 0.19 %ID/g and a tissue uptake at 2 h ([1]; BALB/c, mouse, small intestine, 20 uCi, total radioactivity, Small Int., 2 hr) of 0.09 ± 0.01 %ID/g. The tissue uptake at 4 h ([1]; BALB/c, mouse, small intestine, 20 uCi, total radioactivity, Small Int., 4 hr) was 0.09 ± 0.03 %ID/g, the tissue uptake at 24 h ([1]; BALB/c, mouse, small intestine, 20 uCi, total radioactivity, Small Int., 24 hr) was 0.05 ± 0.01 %ID/g and the “% ID/g” value ([1]; Urine, 30 min) was 1553 % ID/g. The “% ID/g” value ([1]; Urine, 1 hr) was 1400 ± 421 % ID/g, the tissue to tissue ratio at 1 h ([2]; NCRNU nude, GW-39, 1 h) was 1 and the tissue to tissue ratio at 4 h ([2]; NCRNU nude, GW-39, 4 h) was 1. For the same compound, the tissue to tissue ratio at 24 h ([2]; NCRNU nude, GW-39, 24 h) was 1, the tissue to tissue ratio at 1 h ([2]; NCRNU nude, Liver, 1 h) was 24 ± 5.9 and the tissue to tissue ratio at 4 h ([2]; NCRNU nude, Liver, 4 h) was 35.4 ± 6.9. For the same compound, the tissue to tissue ratio at 24 h ([2]; NCRNU nude, Liver, 24 h) was 31.6 ± 5.8, the tissue to tissue ratio at 1 h ([2]; NCRNU nude, Tail, 1 h) was 9.4 ± 2.8 and the tissue to tissue ratio at 4 h ([2]; NCRNU nude, Tail, 4 h) was 26.4 ± 5.2. The tissue to tissue ratio at 24 h ([2]; NCRNU nude, Tail, 24 h) was 55.9 ± 5.7, the tissue to tissue ratio at 1 h ([2]; NCRNU nude, Urine, 1 h) was 0.3 ± 0.5 and the tissue to tissue ratio at 4 h ([2]; NCRNU nude, Urine, 4 h) was 0.71 ± 0.6. The tissue to tissue ratio at 24 h ([2]; NCRNU nude, Urine, 24 h) was 8.3 ± 1.3, the tissue to tissue ratio at 1 h ([2]; nude (Taconic NCRNU), Blood, 1 h) was 6.1 ± 2.5 and the tissue to tissue ratio at 4 h ([2]; nude (Taconic NCRNU), Blood, 4 h) was 12.8 ± 2.
